From article doi:10.1101/2025.02.04.636439 (bioRxiv, 2025) come the findings set out here.

This assay deals with T1, Mycobacterium tuberculosis thiosulfate-sulfurtransferase SseA (Mycobacterium tuberculosis, UniProt P9WHF7 1-297).
T1 sequence: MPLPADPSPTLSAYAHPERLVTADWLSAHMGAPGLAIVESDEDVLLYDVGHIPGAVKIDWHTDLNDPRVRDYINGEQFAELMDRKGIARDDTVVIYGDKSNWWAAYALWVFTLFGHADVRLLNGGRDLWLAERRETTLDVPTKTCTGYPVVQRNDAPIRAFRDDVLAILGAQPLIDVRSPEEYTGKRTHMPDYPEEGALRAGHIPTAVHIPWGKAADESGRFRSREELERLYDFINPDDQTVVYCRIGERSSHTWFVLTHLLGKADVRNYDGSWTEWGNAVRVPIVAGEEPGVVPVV
Briefly: ITC.

B1: SufEMtb (Rv3284), SufE-like protein of Mycobacterium tuberculosis (natural protein)
chain: MTAPASLPAPLAEVVSDFAEVQGQDKLRLLLEFANELPALPSHLAESAMEPVPECQSPLFLHVDASDPNRVRLHFSAPAEAPTTRGFASILAAGLDEQPAADILAVPEDFYTELGLAALISPLRLRGMSAMLARIKRRLREAD
B1: the Kd was found to be 3.3 µM, the dH is -11.6 kcal/mol and the “stoichiometry N” value was 1.
